# Biological target: T1, hGPR81 (SSTR1) (Homo sapiens, UniProt P30872)
# T1 construct: in vitro transcribed RNA injected into Xenopus laevis oocytes
# Test: Ca^2+ efflux in oocytes injected with hGPR81 RNA
# Type: cell-based
# Settings: laevis oocytes injected with in vitro transcribed RNA
# Protocol: Since the presence of a short cytoplasmic loop connecting transmembrane segments M5-M6 is a feature of G protein-coupled receptors that bind peptide hormones and neuropeptides (E. M. Ross, 1990), peptides known to regulate hormone secretion from pancreatic islets were tested as ligands for hGPR81. Initial attempts to identify the ligand for hGPR81 by injecting RNA transcribed in vitro into fenopus laevis oocytes (Kayano et al., 1990) and assessing changes in basal or stimulated cAMP levels in response to […] [calcitonin-gene-related peptide, gastric inhibitory polypeptide, glucagon, glucagon-like peptide 1-(7-36 amide), and vasoactive intestinal peptide], or Ca^2+ efflux (Williams et al., 1988) (angiotensin II, bombesin, cholecystokinin, and vasopressin) were unsuccessful. The binding of radiolabeled peptides (galanin, glucagon and somatostatin) to COS-7 cells transiently expressing hGPR81 was attempted, as well.
# T1 sequence (P30872 whole entry): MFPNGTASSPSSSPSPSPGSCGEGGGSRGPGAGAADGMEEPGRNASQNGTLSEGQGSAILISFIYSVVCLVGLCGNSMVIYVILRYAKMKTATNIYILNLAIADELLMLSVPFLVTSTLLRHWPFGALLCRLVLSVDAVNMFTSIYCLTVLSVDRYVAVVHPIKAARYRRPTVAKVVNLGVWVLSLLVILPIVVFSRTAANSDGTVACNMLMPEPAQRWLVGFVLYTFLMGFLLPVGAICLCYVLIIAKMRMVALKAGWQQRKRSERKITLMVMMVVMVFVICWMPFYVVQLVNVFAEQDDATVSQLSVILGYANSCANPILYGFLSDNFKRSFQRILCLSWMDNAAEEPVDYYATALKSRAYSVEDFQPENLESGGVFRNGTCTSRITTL
molecule,measurement,value
"cholecystokinin: peptide known to regulate hormone secretion from pancreatic islets (peptide, UniProt P06307 21-115, looked up, Cholecystokinin, peptide known to regulate hormone secretion from pancreatic islets) Cholecystokinin: QPVPPADPAGSGLQRAEEAPRRQLRVSQRTDGESRAHLGALLARYIQQARKAPSGRMSIVKNLQNLDPSHRISDRDYMGWMDFGRRSAEEYEYPS",identification as ligand for hGPR81 by Ca^2+ efflux,unsuccessful
